Where “and” joins values, the source holds several entries; their conditions need not be identical. Identical values can stand only once.
Assays:
[1] = Enzyme activity measurement (peroxidase-coupled, A510), substrate putrescine; type: biochemical
Procedure: (§1) Enzyme activity measurement: The activity of a biogenic amine oxidase was measured by an indirect measurement method of […]. The amine oxidase acts on biogenic amines to degrade the biogenic amines into corresponding aldehydes and hydrogen peroxide. Under the presence of peroxidase, hydrogen peroxide reacts with 4-aminoantipyrine and 2,4,6-tribromo-3-hydroxybenzoic acid to generate a quinone dye. The product has a maximum absorption value at 510 nm, and the magnitude of the activity of the amine oxidase was linearly related to the color intensity of the product within a certain range, so that the activity of the amine oxidase can be measured by measuring the change in A510.
(§2) The reaction was carried out in a 96-well plate. The reaction system included 20 μl of enzyme solution (80 ug·mL^−1) and 100 μl of prepared solution (including 200 mmol·L^−1 potassium phosphate buffer with a pH of 7.6, 1.5 mmol·L^−1 4-aminoantipyrine, and 1 mmol·L^−1 2,4,6-tribromo-3-hydroxybenzoic acid). To initiate the reaction, 20 μL of biogenic amine solution (10 mmol·L^−1) and 70 µL of peroxidase (1.4 mg·mL^−1) were added, the absorbance was measured at 510 nm, the reaction temperature was 37° C., and the reaction time was 10 min. The change in absorbance of 0.01 per minute was defined as one enzyme activity unit (U).
(§3) Definition of specific activity of monoamine oxidase (U/mg): The enzyme activity per milligram of protein.
(§4) The catalytic ability of the monoamine oxidase MAO6^sh before and after purification was measured respectively using a single biogenic amine as a substrate. Systems containing putrescine, tyramine, histamine, cadaverine, phenylethylamine, tryptamine, spermine or spermidine with a concentration of 10 mmol/L were prepared respectively, the pure enzyme in Example 3 was added to the reaction system after adjusting the protein concentration (80 ug/mL, 20 uL) for reacting for 30 min at 37° C., and the results were shown in
(§5) After the enzyme solution purified in Example 3 was respectively incubated for 30 min in water baths at 15° C., 30° C., 35° C., 40° C., 45° C., 50° C., 55° C. and 60° C., the enzyme activity was measured according to the standard enzyme reaction system to determine the stable temperature range thereof, and the results were shown in FIG. 6. […] When the incubation temperature was 50° C., the residual enzyme activity for putrescine was 36.66%, the residual enzyme activity for cadaverine was 30.55%, and the residual enzyme activity for tryptamine was 26.34%.
The reaction system was the same as that of Example 5, except that the pH of the reaction system was respectively adjusted to 3.0-9.0, the enzyme activity of the recombinant enzyme MAO6^sh under different pH reaction conditions was measured, the relative enzyme activity at each temperature was calculated respectively using a single biogenic amine as a substrate at the highest enzyme activity of 100%, and the results were shown in FIG. 7. When putrescine was used as a substrate, the optimal pH for the MAO6^sh was about 5.0-6.0. When the pH was within the range of 3.0-5.0, the enzyme activity […] rapidly with the increase of the pH. However, under alkaline conditions, the tolerance was stronger than the acid tolerance.
(§6) The reaction system was the same as that of Example 5, except that ethanol with different concentrations (0-20% vol) was added respectively. […] When the concentration of ethanol was about 15 vol %, the relative enzyme activities of the monoamine oxidase MAO6^sh for putrescine, tryptamine and cadaverine were 9.57%, 11.21% and 13.67% respectively (FIG. 9).

[2] = Enzyme activity measurement (peroxidase-coupled, A510), substrate tryptamine; type: biochemical
Procedure: as §1, §2, §3, §4, §5, §6

[3] = Enzyme activity measurement (peroxidase-coupled, A510), substrate cadaverine; type: biochemical
Procedure: as §1, §2, §3, §4, §5, §6

[4] = type: biochemical
Procedure: as §1
The reaction was carried out in a 96-well plate. […] To initiate the reaction, 20 μL of biogenic amine solution (10 mmol·L^−1) and 70 µL of peroxidase (1.4 mg·mL^−1) were added, the absorbance was measured at 510 nm, the reaction temperature was 37° C., and the reaction time was 10 min. The change in absorbance of 0.01 per minute was defined as one enzyme activity unit (U).
The catalytic ability of the monoamine oxidase MAO6^sh before and after purification was measured respectively using a single biogenic amine as a substrate. […]

[5] = Degradation in commercially available Huangjiu, tryptamine; type: biochemical; details: Huangjiu 18% vol, enzyme 200 μg/ml added 1:1, about 28° C., 48 h
Procedure: (§7) The content of biogenic amines was detected by high-performance liquid chromatography (HPLC).
(§8) The recombinant monoamine oxidase MAO6^sh prepared in Example 3 was subjected to ultrafiltration and concentration to adjust the protein concentration to 200 μg/ml, and then added to the Huangjiu in a ratio of 1:1 for reacting at a room temperature of about 28° C. for 48 h. The control group was commercially available Huangjiu (18% vol) without enzymes, and the total content of biogenic amines in the control group was 136.2 mg·L^−1.

[6] = Degradation in commercially available Huangjiu, putrescine; type: biochemical; details: Huangjiu 18% vol, enzyme 200 μg/ml added 1:1, about 28° C., 48 h
Procedure: as §7, §8

[7] = Degradation in commercially available Huangjiu, phenylethylamine; type: biochemical; details: Huangjiu 18% vol, enzyme 200 μg/ml added 1:1, about 28° C., 48 h
Procedure: as §7, §8

[8] = Degradation in commercially available Huangjiu, cadaverine; type: biochemical; details: Huangjiu 18% vol, enzyme 200 μg/ml added 1:1, about 28° C., 48 h
Procedure: as §7, §8

[9] = Degradation in commercially available Huangjiu, histamine; type: biochemical; details: Huangjiu 18% vol, enzyme 200 μg/ml added 1:1, about 28° C., 48 h
Procedure: as §7, §8

[10] = Degradation in commercially available Huangjiu, tyramine; type: biochemical; details: Huangjiu 18% vol, enzyme 200 μg/ml added 1:1, about 28° C., 48 h
Procedure: as §7, §8

[11] = Degradation in commercially available Huangjiu, spermidine; type: biochemical; details: Huangjiu 18% vol, enzyme 200 μg/ml added 1:1, about 28° C., 48 h
Procedure: as §7, §8

[12] = Degradation in commercially available Huangjiu, spermine; type: biochemical; details: Huangjiu 18% vol, enzyme 200 μg/ml added 1:1, about 28° C., 48 h
Procedure: as §7, §8

[13] = Degradation in commercially available Huangjiu, total biogenic amines; type: biochemical; details: Huangjiu 18% vol (control 136.2 mg/L total), enzyme 200 μg/ml added 1:1, about 28° C., 48 h
Procedure: as §7, §8

[14] = Application in commercially available low-salt soy sauce; type: biochemical; details: enzyme 200 ug/ml, 25° C., 24-48 h
Procedure: The recombinant monoamine oxidase MAO6^sh prepared in Example 3 was subjected to ultrafiltration and concentration to adjust the protein concentration to 200 ug/ml, and then added to the commercially available low-salt soy sauce for standing at a room temperature (25° C.) for 24-48 h.

[15] = Application in table vinegar; type: biochemical; details: enzyme 200 μg/ml, 25° C., 24-48 h
Procedure: The recombinant monoamine oxidase MAO6^sh prepared in Example 3 was subjected to ultrafiltration and concentration to adjust the protein concentration to 200 μg/ml, and then added to the commercially available table vinegar for standing at a room temperature (25° C.) for 24-48 h.

[16] = Application in fermented sausage; type: biochemical; details: enzyme 200 μg/ml added to raw material, versus sausage without enzyme
Procedure: 65-80% of lean meat and 20-35% of fat meat were taken by mass and cleaned, and bones, tendons, myolemma, lymph nodes, blood vessels, lesions and injury sites were removed. The fat meat and the lean meat were separated and cut into 4-5 cm meat pieces. The lean meat and about 5-8% of flake ice were placed in a chopper and chopped for 1-3 min. Based on the mass of pork, […] of sodium nitrite, 2-3% of table salt, 0.2-0.3% of compound phosphate, and 0.05-0.06% of sodium ascorbate were added. Spices, pepper, garlic, chili, and nutmeg were 0.2-0.3% of the raw meat. The recombinant monoamine oxidase MAO6^sh prepared in Example 3 was subjected to ultrafiltration and concentration to adjust the protein concentration to 200 μg/ml, and then added to the sausage raw material for chopping for 1-2 min, and then, the fat meat and about 5-8% of flake ice were added for chopping for 4-6 min. The sausage was pickled and then poured into the sausage casing. The sausage poured into the sausage casing was pickled at 4° C. for 12 h, then heated to 30° C., fermented until the pH decreased to about 5.1, and matured at 14-16° C. for 1-10 d.

[17] = crude enzyme solution, induction at 16° C.
[18] = pure enzyme 80 ug/mL, 10 mmol/L substrate, 37° C., 30 min

B1: MAO6^sh: recombinant flavin-containing monoamine oxidase from Saccharopolyspora hirsuta, amino acid sequence SEQ ID NO. 1, expressed in E. coli BL21/pET28a-MAO6^sh (protein, listed as Saccharopolyspora hirsuta)
chain: MDSYDVVVIGAGFAGLVAARELALRGHAVVVLEARDRIGGRTWTDERLGRRLEMGGTWVHWLQPHVWSEITRYDQRIEPSPSSQAVHWVAGGSAHRGSPEEFDALISPGMDQLARDSRAWFPLPYEPLHRADLDQVDHLSVADYFAGLDLNPVEREVTEGVWAEHFNGPAAVSGYTQAMRWCAAASGNWQLLHQATSGYRLTGGTAALAGAIAADGGAELHLGSVVASVSQDSGGATVSTTDGTSVRARRVICTLPLNVLGTVDFQPALPATKLAASAERTASQGLKTWIRVRGEVAPFTAYAPDSHDLTFVRPEYTVEGDTLLVAFGTRAADLAPDDVDGVARALRVWRDDLEVLEVSGHDWMTDDFSRETWPMQRPEQLTRYLAALQEPHGVVRFAGSDLATGWAGFIDGAVESGLRASRAVQDALRGPRG
residual enzyme activity for putrescine ([1]; 30 min incubation at 50° C.): 36.66% | specific enzyme activity for putrescine [1, 17]: 15.66 U/mg | relative enzyme activity for putrescine ([1]; ethanol about 15 vol %): 9.57% | relative enzyme activity for putrescine ([1]; ethanol lower than 10% vol): 29.44% | specific enzyme activity for putrescine [1, 18]: 161.59 U/mg | optimal pH ([1]; putrescine as substrate, reaction pH 3.0-9.0): 5.0-6.0 | residual enzyme activity for tryptamine ([2]; 30 min incubation at 50° C.): 26.34% | specific enzyme activity for tryptamine [2, 17]: 13.94 U/mg | relative enzyme activity for tryptamine ([2]; ethanol about 15 vol %): 11.21% | relative enzyme activity for tryptamine ([2]; ethanol lower than 10% vol): 30.27% | specific enzyme activity for tryptamine [2, 18]: 149.16 U/mg | residual enzyme activity for cadaverine ([3]; 30 min incubation at 50° C.): 30.55% | specific enzyme activity for cadaverine [3, 17]: 14.70 U/mg | relative enzyme activity for cadaverine ([3]; ethanol about 15 vol %): 13.67% | relative enzyme activity for cadaverine ([3]; ethanol lower than 10% vol): 35.78% | specific enzyme activity for cadaverine [3, 18]: 146.05 U/mg | residual enzyme activity ([4]; 30 min incubation, incubation temperature exceeds 45° C.): about 30% | optimal temperature ([4]; most suitable substrate, reaction temperatures 25-60° C.): 45-50 °C | Degradation rate, Tryptamine [5]: 54.07% and 54.06% | Degradation rate, Tryptamine ([5]; listed as recombinant enzyme): 54.07% | Degradation rate, Putrescine [6]: 33.76% | Degradation rate, Phenylethylamine [7]: 5.78% | Degradation rate, Cadaverine [8]: 43.78% | Degradation rate, Histamine [9]: 21.44% | Degradation rate, Tyramine [10]: 19.31% | Degradation rate, Spermidine [11]: 8.51% | Degradation rate, Spermine [12]: 7.75% | degradation rate for total biogenic amines [13]: 25.56% | reduction of content of biogenic amines [14]: effectively reduce the content of biogenic amines | reduction of content of biogenic amines [15]: effectively reduce the content of biogenic amines | reduction of content of biogenic amines [16]: effectively reduce the content of biogenic amines

— patent publication US20250366499A1, “Flavin-Containing Monoamine Oxidase MAO6sh Capable of Degrading Biogenic Amines and Application Thereof” (Jiangnan University, priority 2024, published 2025)
